Source: PMC10033563, “Unique alcohol dehydrogenases involved in algal sugar utilization by marine bacteria” (Applied Microbiology and Biotechnology, 2023)
One block for each molecule: values may come before it.

Legend:
[1] = molecular target: zinc-dependent alcohol dehydrogenase from Zobellia galactanivorans DsijT (Zobellia galactanivorans DsijT); assay: crystal structure; enzyme (25 mg/mL) incubated with 20 mM NAD+ overnight; crystals from 0.1 M Tris-HCl pH 7.5, 0.2 M KCl, 20-22% (w/v) PEG 3350 at 22 °C; tetrameric interfaces analysed by PDBePISA; tetramer as a dimer of dimers
ZoADH = molecular target: T1, ZoADH (Zobellia galactanivorans, UniProt G0L712); assay: X-ray crystal structure; format: binding; details: co-crystallised with 20 mM NAD+, pH 7.5; Zn2+ bound
T1 construct: gene adhI; codon-optimized synthetic gene in pET28a, N-terminal Strep-tag, E. coli BL21(DE3); homotetramer; 2 Zn per monomer
T1 sequence (G0L712 entry or part of it): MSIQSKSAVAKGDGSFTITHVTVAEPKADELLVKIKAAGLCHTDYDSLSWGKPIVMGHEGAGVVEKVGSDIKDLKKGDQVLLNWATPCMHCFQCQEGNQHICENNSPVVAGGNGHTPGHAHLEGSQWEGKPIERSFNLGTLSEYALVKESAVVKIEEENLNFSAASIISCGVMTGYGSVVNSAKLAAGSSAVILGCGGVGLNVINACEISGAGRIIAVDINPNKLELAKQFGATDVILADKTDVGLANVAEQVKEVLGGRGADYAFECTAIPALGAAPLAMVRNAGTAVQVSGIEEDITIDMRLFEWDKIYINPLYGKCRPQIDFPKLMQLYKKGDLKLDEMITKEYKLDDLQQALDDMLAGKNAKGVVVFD

FoADH = molecular target: T2, FoADH (Formosa agariphila, UniProt T2KM87); assay: X-ray crystal structure; format: binding; details: co-crystallised with 20 mM NAD+, pH 7.5; Zn2+ bound
T2 construct: gene BN863_21030; full-length from genomic DNA in pET28a, N-terminal Strep-tag, E. coli BL21(DE3); homotetramer; 2 Zn per monomer
T2 sequence (T2KM87 1-370): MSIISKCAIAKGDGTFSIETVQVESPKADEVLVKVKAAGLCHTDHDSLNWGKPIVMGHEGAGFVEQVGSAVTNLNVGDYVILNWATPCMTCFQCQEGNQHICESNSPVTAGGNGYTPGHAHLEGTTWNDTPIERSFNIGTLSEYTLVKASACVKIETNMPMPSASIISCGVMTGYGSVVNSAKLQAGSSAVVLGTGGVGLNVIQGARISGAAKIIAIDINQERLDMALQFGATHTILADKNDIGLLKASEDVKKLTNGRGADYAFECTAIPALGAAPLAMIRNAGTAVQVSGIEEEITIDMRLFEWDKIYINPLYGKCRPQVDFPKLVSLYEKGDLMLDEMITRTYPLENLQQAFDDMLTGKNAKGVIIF

[2] = molecular target: the molecule itself; assay: crystal structure; enzyme (25 mg/mL) incubated with 20 mM NAD+ overnight; crystals from 0.1 M Tris-HCl pH 7.5, 0.2 M KCl, 20-22% (w/v) PEG 3350 at 22 °C; tetrameric interfaces analysed by PDBePISA; tetramer as a dimer of dimers

stoichiometry N [1]: 4
Molecule: zinc-dependent alcohol dehydrogenase from Zobellia galactanivorans DsijT (enzyme)

Molecule: NC(=O)c1ccc[n+]([C@@H]2O[C@H](COP(=O)(O)OP(=O)(O)OC[C@H]3O[C@@H](n4cnc5c(N)ncnc54)[C@H](O)[C@@H]3O)[C@@H](O)[C@H]2O)c1 [NAD^+]
X-ray crystal structure (ZoADH): PDB codes 8H2A (FoADH-NAD) and 8H2B (ZoADH-NAD)
X-ray crystal structure (FoADH): deposited in the Protein Data Bank under PDB codes 8H2A (FoADH-NAD)

B1: zinc-dependent alcohol dehydrogenase from Formosa agariphila KMM 3901T (enzyme, UniProt T2KM87 1-370, looked up)
chain: MSIISKCAIAKGDGTFSIETVQVESPKADEVLVKVKAAGLCHTDHDSLNWGKPIVMGHEGAGFVEQVGSAVTNLNVGDYVILNWATPCMTCFQCQEGNQHICESNSPVTAGGNGYTPGHAHLEGTTWNDTPIERSFNIGTLSEYTLVKASACVKIETNMPMPSASIISCGVMTGYGSVVNSAKLQAGSSAVVLGTGGVGLNVIQGARISGAAKIIAIDINQERLDMALQFGATHTILADKNDIGLLKASEDVKKLTNGRGADYAFECTAIPALGAAPLAMIRNAGTAVQVSGIEEEITIDMRLFEWDKIYINPLYGKCRPQVDFPKLVSLYEKGDLMLDEMITRTYPLENLQQAFDDMLTGKNAKGVIIF
notes: FoADH, zinc-dependent alcohol dehydrogenase of Formosa agariphila KMM 3901T (DSM-15362), amplified from genomic DNA into pET28a; the printed insert primers run from the ATG to the stop codon (TTA in the reverse primer); Crystallised with NAD+ and two zinc ions; also called FoADH; ADH; source: E. coli BL21 (DE3), purified (Strep-Tactin XT Sepharose, size exclusion chromatography)
stoichiometry N [2]: 4
